Measured values reported in the supplement of paper PMC10567573.

B1: DLC1 (parent)
chain: AIQGISEKEKAEIEAKEACDWLRA

Variants of: B1
Assay: protein stability index of a GFP-peptide fusion (GPS, HEK-293T) (PSI 1-6); higher = more stable
Conditions: c terminus: a fixed tail appended
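Also: lentivirally expressed fusions sorted by FACS into six bins by GFP to DsRed ratio, PSI derived from sequencing read proportions per bin multiplied by bin number.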

Protein stability index of substitutions, site by site:
S6: R 4.46, E 4.99, I 3.58, L 3.56, A 4.31, Q 4.74, T 4.73, P 4.88, D 4.84, M 4.04, H 4.28, V 4.14, Y 3.48, C 4.3, G 4.39, K 3.96, F 3.86, N 4.54, W 3.71
E17: I 4.12, T 4.34, R 3.7, P 4.41, Q 3.73, A 4.14, G 4.18, D 4.18, Y 3.79, M 3.86, W 3.27, L 3.76, K 4.23, N 3.63, H 4.18, S 4.17, F 3.55, C 3.92, V 3.65
K10: N 4.71, Y 4.11, F 3.71, S 4.61, R 4.04, G 4.17, L 4.08, T 4.68, M 4.67, W 3.73, E 4, H 4.38, P 4.18, I 3.8, C 4.54, Q 4.57, D 4.47, V 3.9, A 4.67
Q3: I 3.88, C 4.28, G 4.33, E 5.07, T 4.81, P 4.19, S 4.56, V 4.34, H 4.68, L 3.54, A 4.83, M 4.18, D 5.2, F 3.61, R 4.43, N 3.77, K 4.27, W 3.58, Y 3.47
E14: N 3.54, A 4.1, S 3.93, Q 4.36, K 3.5, F 3.78, M 3.59, D 4.58, C 4.07, G 3.73, P 4.12, V 3.24, L 3.87, I 3.81, W 2.86, T 4.34, R 3.61, H 3.74, Y 3.91
G4: W 3.8, Y 3.73, V 3.9, Q 4.46, R 3.08, A 4.47, I 3.15, P 4.33, T 4.2, M 3.92, C 4.32, D 4.79, S 4.45, E 4.53, F 4.24, L 3.27, N 3.67, H 4.36, K 4.26
I2: G 4.57, L 4.91, E 5.26, S 4.99, P 4.96, V 4.19, M 4.94, T 5, W 4.37, H 4.9, R 4.78, C 4.88, Q 4.79, K 4.56, D 4.99, A 4.94, N 5.13, F 4.81, Y 4.24
E9: S 4.22, M 3.22, Q 4.14, R 3.08, K 3.97, N 4.5, H 4.71, T 4.12, G 4.23, I 3.29, D 4.2, F 2.69, V 3.88, L 2.97, C 3.76, W 3.63, Y 3.48, A 4.19, P 4.08
E7: H 3.86, T 4.14, I 3.63, R 3.62, D 4.39, V 3.88, S 4.15, Q 4.06, N 3.72, Y 3.63, W 3.58, L 3.06, F 3.44, A 4.25, C 3.61, M 3.67, G 4.22, K 4.3, P 3.71
K8: L 3.85, I 4.5, R 4.43, M 4.49, F 3.97, Y 3.69, D 4.61, P 4.72, S 3.98, C 4, W 3.68, T 5.01, A 3.75, V 4.2, Q 4.3, G 4.6, E 5.05, H 4.4, N 3.88
I5: V 4.54, K 4.71, R 4.57, D 5.19, F 4.18, E 4.35, T 4.87, A 4.77, W 4.47, S 4.8, Q 4.97, C 4.66, P 4.46, G 4.9, H 4.94, N 4.79, L 4.36, Y 4.45, M 5.16
K16: Y 3.89, N 4.82, F 3.61, E 5.21, D 5.1, A 4.35, V 4.17, G 4.35, S 4.1, P 3.58, T 4.87, M 4.24, H 4.32, R 4.55, W 4.09, I 4.16, L 4.1, Q 4.44, C 4.14
A15: R 4.18, V 4.53, L 4, M 4.24, I 3.91, W 3.65, D 4.4, F 3.57, N 4.24, C 4.29, Y 4.33, K 4.61, G 3.97, Q 4.52, P 4.51, T 3.76, E 4.81, S 4.81, H 4.33
E12: N 4.5, V 4.17, T 4.32, H 3.46, S 4.02, R 3.86, D 4.43, A 3.89, L 3.72, G 4.42, I 4.02, Y 3.53, C 3.85, F 3.82, Q 4.18, P 4.63, K 3.81, W 3.26, M 3.98
A18: G 4.35, P 4.88, C 4.43, I 4.14, S 4.31, L 4.2, R 4.56, T 4.35, Q 4.28, F 3.82, M 4.57, D 4.89, K 4.06, N 4.42, H 4.8, E 5.02
I13: E 5.08, P 5.13, W 4.26, H 4.88, Y 4.46, L 4.21, F 3.94, M 4.78, R 4.53, K 4.89, S 4.85, V 4.64, A 4.7, C 5.09, T 4.16, D 5.06, Q 4.44, G 5.08, N 4.66
A1: H 4.21, M 4.09, W 3.23, I 3.94, Q 4.23, Y 3.71, P 4.47, N 5.11, V 4.18, L 4.21, K 4.32, T 4.6, S 4.67, R 4.55
A11: I 3.67, V 4.61, Y 4.16, H 4.34, E 4.87, C 4.32, Q 4.57, T 4.67, K 4.47, L 4.23, D 5.18, P 4.51, M 3.99, F 3.64, S 4.79, N 4.5, R 4.23, G 4.56, W 3.53
